In patent US20260056186A1 (JIANGSU HENGRUI PHARMACEUTICALS, published 2026):
Where two headings read alike, the source gives them in different places.

T1: APRIL (Acro Biosystems, Cat: APL-H52D1) (UniProt O75888 115-250, limits assumed)
T1 construct: also called ARPIL
T1 sequence (looked up): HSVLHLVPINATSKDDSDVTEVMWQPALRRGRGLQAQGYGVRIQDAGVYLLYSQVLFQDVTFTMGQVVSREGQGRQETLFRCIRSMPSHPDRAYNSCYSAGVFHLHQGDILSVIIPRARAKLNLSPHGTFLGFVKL

T2: IFNAR1 (human, UniProt P17181 28-557)
T2 sequence (looked up): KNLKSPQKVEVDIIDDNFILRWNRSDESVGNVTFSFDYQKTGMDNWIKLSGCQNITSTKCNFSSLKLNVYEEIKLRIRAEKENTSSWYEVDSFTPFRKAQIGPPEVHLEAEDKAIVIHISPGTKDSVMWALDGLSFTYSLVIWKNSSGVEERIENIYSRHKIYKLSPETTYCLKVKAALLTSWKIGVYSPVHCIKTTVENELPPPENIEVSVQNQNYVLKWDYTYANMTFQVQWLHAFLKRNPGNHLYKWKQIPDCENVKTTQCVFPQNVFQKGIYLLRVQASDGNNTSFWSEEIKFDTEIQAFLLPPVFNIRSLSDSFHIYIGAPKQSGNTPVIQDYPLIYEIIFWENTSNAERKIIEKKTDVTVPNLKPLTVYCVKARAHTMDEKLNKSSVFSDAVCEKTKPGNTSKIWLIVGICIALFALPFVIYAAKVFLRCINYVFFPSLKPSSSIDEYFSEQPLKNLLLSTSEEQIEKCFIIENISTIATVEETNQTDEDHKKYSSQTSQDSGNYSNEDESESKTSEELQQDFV

T3: recombinant human APRIL (R&D cat: 5860-AP-010/CF) (human, UniProt O75888 105-250, limits assumed)
T3 sequence (looked up): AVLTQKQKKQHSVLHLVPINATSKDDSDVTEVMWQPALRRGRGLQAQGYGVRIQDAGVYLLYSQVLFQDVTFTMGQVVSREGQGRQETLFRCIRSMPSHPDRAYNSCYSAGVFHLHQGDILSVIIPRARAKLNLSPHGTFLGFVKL

B1: B575702 (Fc fusion)
chain: MLQMAGQCSQNEYFDSLLHACIPCQLRCSSNTPPLTCQRYCNASVTNSVKGTNALSCRKEQGKFYDHLLRDCISCASICGQHPKQCAYFCENKLRSPGDKTHTCPPCPAPEAEGAPSVFLFPPKPKDTLMISRTPEVTCVVVDVSHEDPEVKFNWYVDGVEVHNAKTKPREEQYNSTYRVVSVLTVLHQDWLNGKEYKCKVSNKALPSSIEKTISKAKGQPREPQVYTLPPSRDELTKNQVSLTCLVKGFYPSDIAVEWESNGQPENNYKTTPPVLDSDGSFFLYSKLTVDKSRWQQGNVFSCSVMHEALHNHYTQKSLSLSPGK
notes: TACI-BCMA fusion protein; also called BCMA-ECD-TACI-d2-Fc
B2: B575703 (Fc fusion)
chain: SRVDQEERFPQGLWTGVAMRSCPEEQYWDPLLGTCMSCKTICNHQSQRTCAAFCRSLSCRKEQGKFYDHLLRDCISCASICGQHPKQCAYFCENKLRSPVNLPPELMLQMAGQCSQNEYFDSLLHACIPCQLRCSSNTPPLTCQRYCNASVTNSVKGTNADKTHTCPPCPAPEAEGAPSVFLFPPKPKDTLMISRTPEVTCVVVDVSHEDPEVKFNWYVDGVEVHNAKTKPREEQYNSTYRVVSVLTVLHQDWLNGKEYKCKVSNKALPSSIEKTISKAKGQPREPQVYTLPPSRDELTKNQVSLTCLVKGFYPSDIAVEWESNGQPENNYKTTPPVLDSDGSFFLYSKLTVDKSRWQQGNVFSCSVMHEALHNHYTQKSLSLSPGK
notes: TACI-BCMA fusion protein; also called TACI-T2-BCMA-ECD-Fc
B3: B746201 (other)
heavy: EVQLVQSGAEVKKPGESLKISCKGSGYIFTNYWIAWVRQMPGKGLESMGIIYPGDSDIRYSPSFQGQVTISADKSITTAYLQWSSLKASDTAMYYCARHDIEGFDYWGRGTLVTVSSASTKGPSVFPLAPSSKSTSGGTAALGCLVKDYFPEPVTVSWNSGALTSGVHTFPAVLQSSGLYSLSSVVTVPSSSLGTQTYICNVNHKPSNTKVDKRVEPKSCDKTHTCPPCPAPEFEGGPSVFLFPPKPKDTLMISRTPEVTCVVVDVSHEDPEVKFNWYVDGVEVHNAKTKPREEQYNSTYRVVSVLTVLHQDWLNGKEYKCKVSNKALPASIEKTISKAKGQPREPQVYTLPPSRDELTKNQVSLTCLVKGFYPSDIAVEWESNGQPENNYKTTPPVLDSDGSFFLYSKLTVDKSRWQQGNVFSCSVMHEALHNHYTQKSLSLSPGKGGGGSGGGGSGGGGSMLQMAGQCSQNEYFDSLLHACIPCQLRCSSNTPPLTCQRYCSTSCREEQGEFYDHLLRDCISCASICGQHPKQCAAFCE
light: EIVLTQSPGTLSLSPGERATLSCRASQSVSSSFFAWYQQKPGQAPRLLIYGASSRATGIPDRLSGSGSGTDFTLTITRLEPEDFAVYYCQQYDSSAITFGQGTRLEIKRTVAAPSVFIFPPSDEQLKSGTASVVCLLNNFYPREAKVQWKVDNALQSGNSQESVTEQDSKDSTYSLSSTLTLSKADYEKHKVYACEVTHQGLSSPVTKSFNRGEC
notes: Fusion protein of anifrolumab, TACI-19-16 and BCMA-ECD-2 (C-terminus of the heavy chain)
B4: B805201 (other)
heavy: EVQLVQSGAEVKKPGESLKISCKGSGYIFTNYWIAWVRQMPGKGLESMGIIYPGDSDIRYSPSFQGQVTISADKSITTAYLQWSSLKASDTAMYYCARHDIEGFDYWGRGTLVTVSSASTKGPSVFPLAPSSKSTSGGTAALGCLVKDYFPEPVTVSWNSGALTSGVHTFPAVLQSSGLYSLSSVVTVPSSSLGTQTYICNVNHKPSNTKVDKRVEPKSCDKTHTCPPCPAPEFEGGPSVFLFPPKPKDTLMISRTPEVTCVVVDVSHEDPEVKFNWYVDGVEVHNAKTKPREEQYNSTYRVVSVLTVLHQDWLNGKEYKCKVSNKALPASIEKTISKAKGQPREPQVYTLPPSRDELTKNQVSLTCLVKGFYPSDIAVEWESNGQPENNYKTTPPVLDSDGSFFLYSKLTVDKSRWQQGNVFSCSVMHEALHNHYTQKSLSLSPGKGGGGSGGGGSGGGGSSTSCREEQGEFYDHLLRDCISCASICGQHPKQCAAFCE
light: B3 light
notes: Fusion protein of anifrolumab and TACI-19-16 (C-terminus of the heavy chain); also called B80521

What was measured:
[1] = target: T4, BAFF (PeproTech, Cat: 310-13) (UniProt Q9Y275 134-285); assay: ELISA, BAFF coated; reference telitacicept
Description: (§1) The capabilities of TACI-BCMA fusion proteins (B575701, B575702, B575703, and B575704) to bind to BAFF and APRIL were assessed by ELISA as follows: BAFF (PeproTech, Cat: 310-13) or ARPIL (Acro Biosystems, Cat: APL-H52D1) was diluted to 1 μg/mL with PBS, and a 96-well plate (Costar, Cat: 3590) was coated with the dilution overnight at 4° C. The plate was washed with PBST and blocked with Blocking Buffer (PBST containing 1% BSA) at 37° C. for 1 h. The plate was tapped. The test antibodies were diluted with Blocking Buffer. Incubation was performed at 37° C. for 1.5 h. The plate was washed with PBST. An HRP-mouse anti-human Fc antibody (GenScript, Cat: A01854-200) was diluted with Blocking Buffer. Incubation was performed at 37° C. for 40 min. The plate was washed with PBST. 100 μL of TMB substrate solution (Biopanda, Cat: TMB-S-003) was added, and color development was performed at 37° C. for 3 min. 100 μL of ELISA stop solution (Solarbio, Cat: C1058) was added. OD450 was measured.
(§2) The capability of B575702 to bind to BAFF was consistent with that of B575704, and their EC₅₀ values decreased to ¼ of that of telitacicept. The capability of B575701 to bind to BAFF was consistent with that of B575703, and their EC₅₀ values decreased to ½ of that of telitacicept.

[2] = target: T4, BAFF (PeproTech, Cat: 310-13); assay: ELISA, BAFF coated at 1 ug/mL, anti-human Fc-HRP, OD450
Description: as §1, §2

[3] = target: T1, APRIL (Acro Biosystems, Cat: APL-H52D1); assay: ELISA, APRIL coated at 1 ug/mL, anti-human Fc-HRP, OD450
Description: as §1
(§3) The capabilities of the 4 fusion proteins to bind to APRIL were all stronger than that of telitacicept, and their EC₅₀ values decreased to ¼ to ⅓ of that of telitacicept.

[4] = target: T1, APRIL (Acro Biosystems, Cat: APL-H52D1); assay: ELISA, APRIL coated; reference telitacicept; range told of the 4 fusion proteins, lower end tied to B575702 by Table 5
Description: as §1, §3

[5] = target: T1, APRIL (Acro Biosystems, Cat: APL-H52D1); assay: ELISA, APRIL coated; reference telitacicept; range told of the 4 fusion proteins, upper end tied to B575703 by Table 5
Description: as §1, §3

IFNAR1 [6] = target: T2, IFNAR1; assay: cell-based or functional assay
[7] = target: T5, recombinant human BAFF (R&D cat: 7537-BF-025/CF) (human, UniProt Q9Y275 134-285); assay: cell-based or functional assay
[8] = target: T3, recombinant human APRIL (R&D cat: …); assay: cell-based or functional assay
[9] = target: T1, APRIL (Acro Biosystems, Cat: APL-H52D1); assay: ELISA, APRIL coated; reference telitacicept
[10] = target: T1, APRIL (Acro Biosystems, Cat: APL-H52D1); assay: ELISA, APRIL coated at 1 ug/mL, anti-human Fc-HRP, OD450; remark: listed apart in the source
Description: The capabilities of fusion proteins B606401, B637302, B746201, and B805201 to bind to BAFF and APRIL were assessed by ELISA as follows:
as §1, with “BAFF” for “The capabilities of TACI-BCMA fusion proteins (B575701, B575702, B575703, and B575704) to bind to BAFF and APRIL were assessed by ELISA as follows: BAFF”, “plate” for “plate (Costar, Cat: 3590)”

IFNAR1 [11] = target: T2, IFNAR1; assay: cell-based or functional assay; remark: listed apart in the source
[12] = target: T5, recombinant human BAFF (R&D cat: …); assay: cell-based or functional assay; remark: listed apart in the source

T5 sequence (Q9Y275 134-285 limits assumed): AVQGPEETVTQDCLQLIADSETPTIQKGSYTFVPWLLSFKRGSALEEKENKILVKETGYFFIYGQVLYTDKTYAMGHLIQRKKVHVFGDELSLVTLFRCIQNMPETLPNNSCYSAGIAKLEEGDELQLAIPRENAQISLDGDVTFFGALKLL
T4 sequence (Q9Y275 134-285 limits assumed): as above

Binder | EC50 relative to telitacicept [1] | EC50 [2] | Emax [2] | EC50 [3] | Emax [3] | EC50 relative to telitacicept [4] | EC50 relative to telitacicept [5] | IC50 (nM), inhibition of the activity of type I interferons (IFN-beta, HEK-Blue IFN-alpha/beta reporter cells) (IFNAR1 [6]) | CD27+ CD38+ plasma cell count, mean value, BAFF + APRIL-induced (both ligands together), drug at 100 nM (IgG1: 2496) [7] | CD27+ CD38+ plasma cell count, mean value, BAFF + APRIL-induced (both ligands together), drug at 1000 nM (IgG1: 2279) [7] | CD27+ CD38+ plasma cell count, mean value, BAFF + APRIL-induced (both ligands together), drug at 10 nM (IgG1: 2687) [8] | CD27+ CD38+ plasma cell count, mean value, BAFF + APRIL-induced (both ligands together), drug at 100 nM (IgG1: 2496) [8] | CD27+ CD38+ plasma cell count, mean value, BAFF + APRIL-induced (both ligands together), drug at 1000 nM (IgG1: 2279) [8] | EC50 relative to telitacicept [9] | EC50 [10] | Emax [10] | IC50, inhibition of IFN-alpha-induced in vitro differentiation of B cells into plasma cells (CD27+ CD38+) (IFNAR1 [11]) | Flow cytometry proliferating B cell proportion (%), mean value, BAFF-induced, drug at 10 nM (IgG1: 40.15) [12] | Flow cytometry proliferating B cell proportion (%), mean value, BAFF-induced, drug at 100 nM (IgG1: 40.60) [12] | Flow cytometry proliferating B cell proportion (%), mean value, BAFF-induced, drug at 1000 nM (IgG1: 33.97) [12]
B1 | 0.25 fold | 0.166 nM | 2.24 nM (as printed) | 0.171 nM | 2.64 | 0.25 fold |  |  |  |  |  |  |  |  |  |  |  |  |  | 
B2 | 0.5 fold | 0.352 nM | 2.43 nM (as printed) | 0.264 nM | 2.78 |  | 0.333 fold |  |  |  |  |  |  |  |  |  |  |  |  | 
B3 |  |  |  |  |  |  |  | 1.64 nM | 520 cells | 410 cells | 575 cells | 520 cells | 410 cells | 0.333 fold | 0.179 nM | 2.8 | 1.9 nM |  |  | 
B4 |  |  |  |  |  |  |  | 1.63 nM | 426 cells | 438 cells | 434 cells | 426 cells | 438 cells | 0.333 fold | 0.182 nM | 2.85 | 6.21 nM | 20.4% | 24.3% | 15%
